Reference: PMC10151520, “TapA acts as specific chaperone in TasA filament formation by strand complementation” (Proceedings of the National Academy of Sciences of the …, 2023)

Tests used:
[1] = target: T1, TasA (mature protein, residues 28 to 261) (Bacillus subtilis (strain 168), UniProt P54507); assay: AUC (sedimentation velocity); 150 mM NaCl at pH 7 (no ITC response at 50 mM NaCl, pH 7); TapA-induced TasA oligomerization
T1 chain: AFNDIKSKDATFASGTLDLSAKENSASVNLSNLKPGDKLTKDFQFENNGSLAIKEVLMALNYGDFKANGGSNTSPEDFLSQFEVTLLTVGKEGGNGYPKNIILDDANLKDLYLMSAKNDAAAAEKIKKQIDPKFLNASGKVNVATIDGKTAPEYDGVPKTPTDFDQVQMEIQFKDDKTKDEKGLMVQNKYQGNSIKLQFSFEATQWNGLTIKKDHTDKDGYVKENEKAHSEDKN

[2] = target: the molecule itself; assay: SEC; gel filtration of TapA constructs, without DTT
[3] = target: the molecule itself; assay: time course of 1H solution NMR signals of the monomer; one-dimensional 1H spectra over time after mixing; TasA at 125 or 250 µM with TapA or TapA variants (e.g. 5:1); legend: 20 °C, pH 7, 150 mM NaCl
[4] = target: T2, TasA (mature protein, residues 28 to 261) (Bacillus subtilis, UniProt P54507 28-261); assay: AUC; sedimentation velocity of mixtures: 100 µM TasA with TapA (100, 70, 10, 4, 2 or 1 µM), TapA variants (100 µM) or 250 µM peptide; 20 °C, 20 mM Na phosphate pH 7.0, 150 mM NaCl, 40,000 rpm, runs of 17 h; details: both partners purified
T2 construct: Used unlabelled or isotope-labelled (2H,13C,15N; 2H,15N; [2-13C]-glycerol) according to the experiment; also called translocation-dependent antimicrobial spore component; source: monomer separated by gel filtration
T2 sequence (looked up): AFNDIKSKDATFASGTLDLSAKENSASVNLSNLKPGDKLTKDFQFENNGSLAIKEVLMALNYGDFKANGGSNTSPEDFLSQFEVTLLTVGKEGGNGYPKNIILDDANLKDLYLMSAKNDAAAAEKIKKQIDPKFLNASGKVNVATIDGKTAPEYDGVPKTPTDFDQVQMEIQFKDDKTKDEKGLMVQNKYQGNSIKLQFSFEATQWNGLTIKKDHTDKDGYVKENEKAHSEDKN

B1: TapA (mature protein, residues 44 to 253) (protein)
chain: AFHDIETFDVSLQTCKDFQHTDKNCHYDKRWDQSDLHISDQTDTKGTVCSPFALFAVLENTGEKLKKSKWKWELHKLENARKPLKDGNVIEKGFVSNQIGDSLYKIETKKKMKPGIYAFKVYKPAGYPANGSTFEWSEPMRLAKCDEKPTVPKKETKSDVKKENETTQKDIPEKTMKEETSQEAVTKEKETQSDQKESGEEDEKSNEADQ
[1]
  binding result: binds

B2: TapA_(60-190) (domain or fragment, B. subtilis 168, UniProt P40949 60-190, looked up)
chain: DFQHTDKNCHYDKRWDQSDLHISDQTDTKGTVCSPFALFAVLENTGEKLKKSKWKWELHKLENARKPLKDGNVIEKGFVSNQIGDSLYKIETKKKMKPGIYAFKVYKPAGYPANGSTFEWSEPMRLAKCDE
notes: TapA of Bacillus subtilis 168, residues 60 to 190; Odd number of cysteines (free C68)
[2]
  stoichiometry N: 2

B3: TapA_(66-190) (domain or fragment, B. subtilis 168, UniProt P40949 66-190, looked up)
chain: KNCHYDKRWDQSDLHISDQTDTKGTVCSPFALFAVLENTGEKLKKSKWKWELHKLENARKPLKDGNVIEKGFVSNQIGDSLYKIETKKKMKPGIYAFKVYKPAGYPANGSTFEWSEPMRLAKCDE
notes: TapA of Bacillus subtilis 168, residues 66 to 190; Odd number of cysteines (free C68)
[2]
  stoichiometry N: 2

B4: TasA_(28-239) (domain or fragment, Bacillus subtilis, UniProt P54507 28-239, looked up)
chain: AFNDIKSKDATFASGTLDLSAKENSASVNLSNLKPGDKLTKDFQFENNGSLAIKEVLMALNYGDFKANGGSNTSPEDFLSQFEVTLLTVGKEGGNGYPKNIILDDANLKDLYLMSAKNDAAAAEKIKKQIDPKFLNASGKVNVATIDGKTAPEYDGVPKTPTDFDQVQMEIQFKDDKTKDEKGLMVQNKYQGNSIKLQFSFEATQWNGLTIK
[3]
  binding result: binds

B5: TapA_(44-190) (domain or fragment, B. subtilis 168, UniProt P40949 44-190, looked up)
chain: AFHDIETFDVSLQTCKDFQHTDKNCHYDKRWDQSDLHISDQTDTKGTVCSPFALFAVLENTGEKLKKSKWKWELHKLENARKPLKDGNVIEKGFVSNQIGDSLYKIETKKKMKPGIYAFKVYKPAGYPANGSTFEWSEPMRLAKCDE
notes: also called TapA without residues beyond E190; variant with deleted C terminus
[4]
  binding result: binds
